The values below are quoted from earlier work in publication PMC3430373.

For the data set, the target named is S10:NusB complex (Escherichia coli) (UniProt C4ZUH6). The experiment in a line: NMR.

Consider NusG CTD (from UniProt P0AFG0), for which the Kd – broadly, the concentration at which binding is half-saturated – was 50 µM.
